Patent US20030082746

Key:
[1] = molecular target: T1, pro-transglutaminase derived from S. mobaraense IFO13819 (transglutaminase having the pro-structure part)
T1 chain: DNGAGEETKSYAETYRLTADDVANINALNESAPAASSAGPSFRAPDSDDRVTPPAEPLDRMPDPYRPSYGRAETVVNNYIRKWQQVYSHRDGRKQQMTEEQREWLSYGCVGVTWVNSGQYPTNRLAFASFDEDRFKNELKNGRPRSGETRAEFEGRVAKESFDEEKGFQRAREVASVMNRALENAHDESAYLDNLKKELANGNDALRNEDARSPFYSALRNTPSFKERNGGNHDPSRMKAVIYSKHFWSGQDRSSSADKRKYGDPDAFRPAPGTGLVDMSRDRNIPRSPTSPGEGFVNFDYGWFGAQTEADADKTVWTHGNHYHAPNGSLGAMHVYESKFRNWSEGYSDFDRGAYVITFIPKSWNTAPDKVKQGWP

[2] = molecular target: T2, pro-transglutaminase of S. mobaraense, Asp deletion type of the pro-structure part
T2 chain: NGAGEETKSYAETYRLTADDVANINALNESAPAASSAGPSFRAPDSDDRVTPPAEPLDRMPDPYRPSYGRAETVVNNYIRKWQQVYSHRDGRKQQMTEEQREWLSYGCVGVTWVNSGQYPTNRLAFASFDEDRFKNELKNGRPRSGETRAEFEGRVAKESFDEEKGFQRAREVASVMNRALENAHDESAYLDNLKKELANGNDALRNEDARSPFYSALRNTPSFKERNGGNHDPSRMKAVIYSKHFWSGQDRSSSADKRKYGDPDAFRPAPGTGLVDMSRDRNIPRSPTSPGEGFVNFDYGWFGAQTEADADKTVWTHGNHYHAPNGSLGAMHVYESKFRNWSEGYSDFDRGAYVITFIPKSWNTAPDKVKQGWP

[3] = molecular target: T3, pro-transglutaminase of S. mobaraense, Ala-Pro deletion type of the pro-structure part
T3 chain: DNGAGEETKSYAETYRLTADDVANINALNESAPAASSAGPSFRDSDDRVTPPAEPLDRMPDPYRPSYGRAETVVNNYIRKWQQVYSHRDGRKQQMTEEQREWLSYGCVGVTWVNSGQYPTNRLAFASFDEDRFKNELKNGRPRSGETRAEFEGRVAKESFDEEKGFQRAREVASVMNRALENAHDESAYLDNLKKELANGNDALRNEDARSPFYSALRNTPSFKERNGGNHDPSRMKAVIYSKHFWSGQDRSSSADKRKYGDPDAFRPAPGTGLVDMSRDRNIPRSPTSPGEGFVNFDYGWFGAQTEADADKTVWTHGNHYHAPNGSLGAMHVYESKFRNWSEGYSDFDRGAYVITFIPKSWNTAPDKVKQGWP

[4] = molecular target: T4, pro-transglutaminase of S. mobaraense, Asp-Asn-Gly-Ala-Gly-Glu deletion type of the pro-structure part
T4 chain: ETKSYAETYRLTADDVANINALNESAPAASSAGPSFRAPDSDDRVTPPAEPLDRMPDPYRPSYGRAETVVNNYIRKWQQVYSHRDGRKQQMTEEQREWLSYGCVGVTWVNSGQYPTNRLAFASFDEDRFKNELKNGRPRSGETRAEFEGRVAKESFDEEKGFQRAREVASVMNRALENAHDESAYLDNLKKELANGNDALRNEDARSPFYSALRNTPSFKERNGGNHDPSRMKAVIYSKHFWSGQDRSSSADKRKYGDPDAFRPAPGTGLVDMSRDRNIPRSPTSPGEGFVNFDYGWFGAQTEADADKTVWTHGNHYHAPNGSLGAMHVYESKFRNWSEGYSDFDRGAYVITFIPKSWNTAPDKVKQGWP

[5] = molecular target: T5, pro-transglutaminase of S. mobaraense, Phe-Arg-Ala-Pro deletion type and Arg insertion-variant of the pro-structure part
T5 chain: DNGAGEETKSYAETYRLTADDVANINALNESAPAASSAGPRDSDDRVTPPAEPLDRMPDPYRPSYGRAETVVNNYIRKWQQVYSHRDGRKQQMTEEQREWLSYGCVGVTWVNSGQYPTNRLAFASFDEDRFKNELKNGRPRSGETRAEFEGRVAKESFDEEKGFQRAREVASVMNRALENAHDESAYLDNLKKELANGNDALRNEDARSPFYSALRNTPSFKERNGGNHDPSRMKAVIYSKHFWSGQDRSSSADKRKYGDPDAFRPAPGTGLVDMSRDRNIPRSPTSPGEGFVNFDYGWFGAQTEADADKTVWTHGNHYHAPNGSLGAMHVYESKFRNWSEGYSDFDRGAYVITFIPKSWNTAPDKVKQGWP

[6] = molecular target: T6, pro-transglutaminase of S. mobaraense, Gly-Pro-Lys type modified variant of the pro-structure part
T6 chain: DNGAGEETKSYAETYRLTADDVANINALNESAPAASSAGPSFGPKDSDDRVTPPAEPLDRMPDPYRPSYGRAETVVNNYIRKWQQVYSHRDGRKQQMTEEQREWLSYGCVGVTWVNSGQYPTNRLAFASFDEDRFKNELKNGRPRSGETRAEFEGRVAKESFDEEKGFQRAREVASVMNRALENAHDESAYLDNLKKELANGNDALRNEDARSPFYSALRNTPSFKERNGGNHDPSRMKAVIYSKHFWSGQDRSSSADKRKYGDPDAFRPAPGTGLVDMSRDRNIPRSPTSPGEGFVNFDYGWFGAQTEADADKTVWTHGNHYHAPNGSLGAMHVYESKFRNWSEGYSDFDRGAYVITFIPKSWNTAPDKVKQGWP

[7] = molecular target: T7, pro-transglutaminase of S. mobaraense, Gly-Pro-Arg type modified variant of the pro-structure part
T7 chain: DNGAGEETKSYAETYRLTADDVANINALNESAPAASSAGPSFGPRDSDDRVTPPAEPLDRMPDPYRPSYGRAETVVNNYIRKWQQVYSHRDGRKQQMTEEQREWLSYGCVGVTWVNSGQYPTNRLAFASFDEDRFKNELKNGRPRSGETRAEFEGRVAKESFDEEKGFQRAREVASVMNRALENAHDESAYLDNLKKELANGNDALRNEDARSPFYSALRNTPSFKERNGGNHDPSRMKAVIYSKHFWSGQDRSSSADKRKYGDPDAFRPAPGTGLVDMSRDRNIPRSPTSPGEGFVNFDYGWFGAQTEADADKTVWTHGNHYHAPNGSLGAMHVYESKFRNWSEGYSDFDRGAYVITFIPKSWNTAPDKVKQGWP

[8] = molecular target: T8, pro-transglutaminase of S. mobaraense, Phe-Arg-Ala-Pro deletion type of the pro-structure part
T8 chain: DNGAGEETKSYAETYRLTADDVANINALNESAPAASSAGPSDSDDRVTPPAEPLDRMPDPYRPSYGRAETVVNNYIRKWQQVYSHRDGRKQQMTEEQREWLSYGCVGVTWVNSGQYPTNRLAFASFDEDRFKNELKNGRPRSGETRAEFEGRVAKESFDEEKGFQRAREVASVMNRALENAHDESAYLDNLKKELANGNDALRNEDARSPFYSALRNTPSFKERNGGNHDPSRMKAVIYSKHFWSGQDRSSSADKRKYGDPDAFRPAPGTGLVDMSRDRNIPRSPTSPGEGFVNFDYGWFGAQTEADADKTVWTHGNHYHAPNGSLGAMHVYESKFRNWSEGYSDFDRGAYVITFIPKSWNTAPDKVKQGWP

[9] = molecular target: T9, pro-transglutaminase of S. mobaraense, Phe-Arg-Ala-Pro deletion type and Lys insertion-variant of the pro-structure part
T9 chain: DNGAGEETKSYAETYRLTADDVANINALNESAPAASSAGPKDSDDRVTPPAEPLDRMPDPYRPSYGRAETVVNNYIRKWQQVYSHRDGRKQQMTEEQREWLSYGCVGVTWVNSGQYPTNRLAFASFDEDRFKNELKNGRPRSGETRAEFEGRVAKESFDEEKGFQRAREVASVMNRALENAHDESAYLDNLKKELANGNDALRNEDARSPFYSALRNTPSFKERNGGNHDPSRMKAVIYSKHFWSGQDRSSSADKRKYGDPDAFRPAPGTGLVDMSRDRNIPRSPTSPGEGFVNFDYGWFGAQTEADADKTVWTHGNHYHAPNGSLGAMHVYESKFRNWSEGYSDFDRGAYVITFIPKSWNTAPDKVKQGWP

B1: SAMP45, serine protease produced by Streptomyces albogriseolus (protein)
chain: NGENSTAAGSSASATALKGKHRVTLITGDRVALDAKGRVVGLEPAEGREHIPVQIRRSDGHTLVVPADAARLVASGKLDQRLFDVTELNKAATRTAHRGGLKVIVGYRGAAKAAKADVRDAGTVRRTLTSLNADAVQTPQEAGAELWEAVTDGDRTASGVARVWLDGVRKASLDTSVGQIGTPKAWEAGYDGKGVKIAVLDTGVDATHPDLKGQVTASKNFTSAPTTGDVVGHGTHVASIAAGTGAQSKGTYKGVAPGAKILNGKVLDDAGFGDDSGILAGMEWAAAQGADIVNMSLGGMDTPETDPLEAAVDKLSAEKGILFAIAAGNEGPQSIGSPGSADSALTVGAVDDKDKLADFSSTGPRLGDGAVKPDLTAPGVDITAASAKGNDIAKEVGEKPAGYMTISGTSMATPHVAGAAALLKQQHPEWKYAELKGALTASTKDGKYTPFEQGSGRVQVDKAITQTVIAEPVSLSFGVQQWPHADDKPVTKKLTYRNLGTEDVTLKLTSTATGPKGKAAPAGFFTLGASTLTVPANGTASVDVTADTRLGGAVDGTYSAYVVATGAGQSVRTAAAVEREVESYNVTLKVLDRSGKATANYMAYLSGLTGLGKDRSYAPYEADGAVSVRVPKGGYVLDASVLVGADPETWRGADWLAQPKLDVTRNTTVTVDARKAKPVKVTVPGKAAKAQFASADYTIETNDSAVSYGWWLENYSGFRSAHLGPQITNGTLSQQWNTHFSNGAKAQYTAISGGKVKKLATGYTRAFKAKEFATVQVGMGAAASGKKGAVTAFGWLPGSSGASGFSQEQKLPSTRTLYLSTVNGVTWDLDFEQLGGVDNEGWPIYDAVYTIGVGKTYKGGKTYKETVNTAVFGPRLTSSYGVFRDGNSIYGVIPLFADGKGHAGSSEFSSAVTTLYRNGKKVGSNNDPLFGEEGFTVPSGDAAYRLTTSVKRSAKVAAASTRIDASWTFRSKKTSGEKQLPVSSARFAAVTGLDSKVAAGKKATFPVVVEGAAQGKNLKSLAVYVSYNGGKTWKKTTVTKGKITVKNPAKGKAISFRAKITDKKGNASLITIHNAYYGK
In the case of B1, the “N-terminal amino acid sequence of the cleaved transglutaminase” value (“N-terminal amino acid sequence” for short) [1] is reported as “it had the structure in which the 4 C-terminal amino acids of Phe-Arg-Ala-Pro from the pro-structure part was added to the naturally occurring mature transglutaminase”, the “N-terminal amino acid sequence” value [2] is reported as “Phe-Arg-Ala-Pro was added to the naturally occurring mature transglutaminase in the transformant harboring pPKSPTG1 D or pPKSPTG1 DNGAGE” and the “N-terminal amino acid sequence” value [3] is reported as “Phe-Arg was added to the N-terminal of the naturally occurring mature transglutaminase shown in SEQ ID NO: 5 in the transformant harboring pPKSPTG1 AP”. The “N-terminal amino acid sequence” value [4] was “Phe-Arg-Ala-Pro was added to the naturally occurring mature transglutaminase in the transformant harboring pPKSPTG1 D or pPKSPTG1 DNGAGE”, the “N-terminal amino acid sequence” value [5] was “Ser-Ala-Gly-Pro-Lys (SEQ ID NO: 69) or Ser-Ala-Gly-Pro-Arg (SEQ ID NO: 70) was found to be added to the sequence of the naturally occurring mature transglutaminase for C. glutamicum ATCC13869 harboring pVSS1 and pPKSPTG13, or pVSS1 and pPKSPTG14” and the “N-terminal amino acid sequence” value [6] was “the sequence identical to that of the naturally occurring mature transglutaminase was confirmed for C. glutamicum ATCC13869 harboring pVSS1 and pPKSPTG11, or pVSS1 and pPKSPTG12, which had Asp as the N-terminal amino acid residue”. For the same protein, the “N-terminal amino acid sequence” value [7] was “the sequence identical to that of the naturally occurring mature transglutaminase was confirmed for C. glutamicum ATCC13869 harboring pVSS1 and pPKSPTG11, or pVSS1 and pPKSPTG12, which had Asp as the N-terminal amino acid residue”, the “N-terminal amino acid sequence” value [8] was “Ser-Ala-Gly-Pro-Ser was added to the N-terminal of the naturally occurring mature transglutaminase in the transformant harboring pPKSPTG1 FRAP” and the “N-terminal amino acid sequence” value [9] was “Ser-Ala-Gly-Pro-Lys (SEQ ID NO: 69) or Ser-Ala-Gly-Pro-Arg (SEQ ID NO: 70) was found to be added to the sequence of the naturally occurring mature transglutaminase for C. glutamicum ATCC13869 harboring pVSS1 and pPKSPTG13, or pVSS1 and pPKSPTG14”.
